Experiment [1] concerns the target Chaetomium thermophilum dynactin p150^Glued coiled-coil 1B, p150_(CC1B) (residues 478-680) (Chaetomium thermophilum). Briefly: AUC; sedimentation equilibrium, dimer to monomers; three concentrations in the range 15-60 µM, 10,000, 14,000 and 18,000 rpm, 20°C; global fit to a monomer-dimer self-association model.
The target is the same in experiment [2]. Briefly: SEC-MALS; complexes of IC fragments (IC_(1-88)/IC_(100-260); IC_(1-88)/p150_(CC1B)) and p150_(CC1B) alone; Superdex 200; conditions not given. On the technique in general: SEC sorts molecules by how far they enter the pores of the column.
Experiment [3] addresses Chaetomium thermophilum dynein intermediate chain IC_(100-260) (Chaetomium thermophilum). The experiment is described as above.
For experiment [4], the target named is Chaetomium thermophilum nuclear distribution protein NudE coiled-coil, NudECC (residues 1-190) (Chaetomium thermophilum). Briefly: ITC; IC construct in the syringe (200-400 µM) titrated into p150_(CC1B) or NudECC in the cell (20-40 µM); 25°C; 50 mM sodium phosphate pH 7.5, 50 mM NaCl, 1 mM sodium azide; two-step model for p150_(CC1B), one-site model for NudECC. Background: In ITC the heat of successive injections is recorded.

For experiment [5], the target named is Chaetomium thermophilum dynactin p150^Glued coiled-coil 1B, p150_(CC1B) (residues 478-680) (Chaetomium thermophilum). The experiment is described as above.
Experiment [6] deals with Chaetomium thermophilum nuclear distribution protein NudE coiled-coil, NudECC (residues 1-190) (Chaetomium thermophilum). Briefly: AUC; sedimentation equilibrium, dimer to monomers; three concentrations in the range 15-60 µM, 10,000, 14,000 and 18,000 rpm, 20°C; global fit to a monomer-dimer self-association model.

Usually Kd stands for the free concentration of one partner at which half of the binding sites on the other are occupied at equilibrium, for simple one-to-one binding. Low readings indicate tighter binding, high ones weaker binding. The stoichiometry N is a count of units in the complex or per binding partner.

For “Chaetomium thermophilum dynactin p150^Glued coiled-coil 1B, p150_(CC1B) (residues 478-680) (domain or fragment)”, in experiment [1], the Kd was 30 nM and the stoichiometry N worked out at 2. Moreover, the stoichiometry N in experiment [2] was 2.

Consider “Chaetomium thermophilum dynein intermediate chain IC_(1-88) (domain or fragment)”, for which the stoichiometry N in experiment [3] was found to be 1. The stoichiometry N (IC (1-88) chains per p150 (CC1B) dimer) in experiment [2] was determined as 2. In experiment [4], the Kd stood at 300 nM and the stoichiometry N came out at 1. In addition, in experiment [5], the N of each step (two-step binding model) was 0.5 and the stoichiometry N amounted to 1.

In turn, “Chaetomium thermophilum dynein intermediate chain IC_(37-88) (domain or fragment)” gave a Kd in experiment [5] of 20000 nM.

As for “Chaetomium thermophilum nuclear distribution protein NudE coiled-coil, NudECC (residues 1-190) (domain or fragment)”, in experiment [6], the Kd worked out at 200 nM and the stoichiometry N is 2.

For the origin of these results see paper PMC9771362.
